Source: patent publication US20160257710A1, “SELECTIVE INHIBITORS OF PROTEINASE 3” (INSERM (INSTITUT NATIONAL DE LA SANTÉ ET LA RECHERCHE …, priority 2013, published 2016)
Positions count from the first letter of the chain named. Where no end group is shown, it is not given here. [ ]: non-standard residue; d: D form. The star is where a group is joined. pNA = O=[N+]([O-])c1ccc(N*)cc1; AlaP = not defined here; Ahx = NCCCCCC(=O)O; pentyl = CCCCC*

Columns and labels:
[1] = molecular target: T1, Elastase (Homo sapiens, UniProt P08246); test: Protease inhibition assay, second order rate constant kobs/[I] (method of Tian and Tsou); format: biochemical; conditions: n.s where no significant inhibition
T1 sequence (P08246 30-267): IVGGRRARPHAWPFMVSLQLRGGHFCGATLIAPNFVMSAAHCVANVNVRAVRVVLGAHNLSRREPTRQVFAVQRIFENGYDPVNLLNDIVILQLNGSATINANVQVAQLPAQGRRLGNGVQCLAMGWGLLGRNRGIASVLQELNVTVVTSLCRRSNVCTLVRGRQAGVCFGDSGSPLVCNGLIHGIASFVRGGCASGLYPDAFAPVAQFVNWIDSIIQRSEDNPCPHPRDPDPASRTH
Description: (§1) The inactivation of proteases by substrate analog inhibitors in the presence of the substrate by competition for the enzyme-binding site, was measured by the method of Tian and Tsou (17). In this system, product formation in the presence of an irreversible inhibitor approaches an asymptote, as described by
(§2) log([P∞]−[P])=log [P∞]−0.43A[Y]t
(§3) where [P∞] is the concentration of product formed at time approaching infinity, [P] is the concentration of product at time t, [Y] is the inhibitor concentration, and A is the apparent inhibition rate constant in the presence of the substrate. A is given by
(§4) where k+0 is the rate constant for association of the inhibitor with the enzyme, K^−1 is the inverted Michaelis constant, and [S] the substrate concentration. The apparent inhibition rate constant A is the slope of a plot of log([P∞]−[P]) against t, to give the second-order rate constant of inhibition k+0

[2] = molecular target: T2, Proteinase 3 (Homo sapiens, UniProt P24158); test: as above; format: biochemical; conditions: for effect of P5 group on kobs/I: ammonium, Trp or Ile at P5; for kobs/I range: PR3
T2 sequence (P24158 28-248): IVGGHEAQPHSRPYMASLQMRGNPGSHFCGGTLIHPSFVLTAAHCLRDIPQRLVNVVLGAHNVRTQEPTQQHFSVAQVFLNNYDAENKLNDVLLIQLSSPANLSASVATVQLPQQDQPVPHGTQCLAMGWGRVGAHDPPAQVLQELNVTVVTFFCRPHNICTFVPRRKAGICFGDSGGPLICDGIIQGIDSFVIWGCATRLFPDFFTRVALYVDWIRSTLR
Description: The compounds of the invention are advantageously selective inhibitors of PR3. […] As described under the Examples below (see PR3 inhibition assay), and as is generally known, efficacy of particular inhibitors against a target protease, for example, recombinant human PR3, is determined by combining the target with a substrate (for example Suc-AanV-SBzI), both in the absence of the inhibitor and in the present of different concentrations of such inhibitor to be tested. Typically, the efficacy of irreversible inhibitors are measured in terms of the second order rate constant of inhibition value (11) or kobs/l. Preferred inhibitors of the invention have typically a kobs/I of more than 10 M^−1s^−1, preferably more than 100 M^−1s^−1, and more preferably of more than […].
as §1, §2, §3, §4

[3] = molecular target: T3, HNE (Homo sapiens, UniProt P08246); test: Hydrolysis of paranitroanilide substrates, kcat/KM; format: biochemical
T3 sequence (P08246 30-267): T1 sequence (P08246 30-267)
Description: (§5) Then we used the peptidyl sequences DYDA- and PYDA- to construct two paranitroanlide substrates bearing this sequence from P4 to P1. Ac-DYDA-pNA and Ac-PYDA-pNA were assayed with purified PR3 and HNE and the specificity constants kcat/Km were determined. […] We then constructed phosphonate inhibitors with the same peptidyl sequence i.e. Ac-DYDA^P(Oph-p-Cl)2 and Ac-PYDA^P(Oph-p-Cl)2.

[4] = molecular target: T4, wtPR3 (Homo sapiens, UniProt P24158); test: Hydrolysis of paranitroanilide substrates, kcat/KM; format: biochemical
T4 sequence (P24158 28-248): T2 sequence (P24158 28-248)
Description: as §5

[5] = molecular target: T3, HNE; test: Residual activity of purified protease with FRET substrate in presence of increasing amounts of compound; format: biochemical; conditions: HNE 1 nM, same experimental conditions as PR3
Text: (§6) Phosphonate inhibitors and their biotinylated and fluorescent derivatives were synthesized, purified and controlled by mass spectrometry as reported. Their purity was checked by HPLC (data not shown). Purified Ac-Asp-Tyr-Asp-Ala^P(O—C6H4-4-Cl)2 (compound 1) and Ac-Pro-Tyr-Asp-Ala^P(O—C6H4-4-Cl)2 (compound 2) were first assayed for their inhibitory properties by measuring the residual activity of the human neutrophil serine proteases PR3, HNE and CatG in the presence of increasing amounts of each compound. We used for this purpose the FRET substrates that we developed previously for each protease (18). An almost complete inhibition of PR3 (1 nM final) was obtained after a 30 min incubation time with 20 μM of compound 1 (FIG. 1) and 0.3 μM of compound 2 (FIG. 2). Recombinant PR3K99L, […], HNE and CatG were used in the same experimental conditions. […] This emphasizes the importance of the S2 and S4 subsites to discriminate between PR3 and HNE specificities. Significant inhibition of HNE was obtained using about 100 times more Ac-Pro-Tyr-Asp-Ala^P(O—C6H4-4-Cl)2 than required to inhibit PR3. […] We confirmed this observation kinetically by measuring the second order rate constants kobs/l by competition experiments between the PR3 substrate and each inhibitor (17). As expected the second order rate constant kobs/l for compound 2 was about 100 times greater than that for compound 1 (see Table 1).

[6] = molecular target: T5, PR3 (Homo sapiens, UniProt P24158); test: as above; format: biochemical; conditions: PR3 1 nM final, 30 min incubation
T5 construct: in a lysate of purified human neutrophils; endogenous in cells; host or cells: purified human neutrophils (lysate)
T5 sequence (P24158 28-248): T2 sequence (P24158 28-248)
Text: as §6

[7] = molecular target: T6, CatG (Homo sapiens, UniProt P08311); test: as above; format: biochemical; conditions: CatG 1 nM, same experimental conditions as PR3
T6 sequence (P08311 21-244): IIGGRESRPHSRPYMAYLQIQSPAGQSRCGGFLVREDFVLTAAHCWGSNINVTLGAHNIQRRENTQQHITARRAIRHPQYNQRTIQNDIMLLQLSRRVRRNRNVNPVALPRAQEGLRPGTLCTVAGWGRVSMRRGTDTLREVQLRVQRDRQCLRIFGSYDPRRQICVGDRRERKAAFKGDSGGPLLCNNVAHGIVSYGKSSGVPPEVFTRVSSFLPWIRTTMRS
Text: as §6

[8] = molecular target: T5, PR3; test: Inhibition of PR3 in a lysate of purified human neutrophils; format: biochemical; conditions: conditions as with purified proteases
Text: (§7) We first studied the stability and the selectivity of compound 1, 2 and their biotinylated derivatives in a lysate of purified human neutrophils. […] Further, PR3 was selectively inactivated in the neutrophil lysate as shown by western blotting using biotinylated inhibitors.

[9] = Stability of inhibitors in neutrophil lysate (preincubation before adding substrates); format: in vitro ADME, human; conditions: one hour preincubation of neutrophil lysate-inhibitor mixture
Text: as §7

[10] = molecular target: T7, PR3I217R (Homo sapiens, UniProt P24158, I221R); test: Residual activity of recombinant PR3 mutant in presence of increasing amounts of compound; format: biochemical
T7 construct: made in house; host or cells: Drosophila S2 cells
T7 sequence (P24158 28-248 I221R limits assumed): T2 sequence (P24158 28-248) with I194R
Description: (§8) Recombinant PR3K99L and […] were produced in Drosophila S2 cells using the calcium phosphate method, and stable cell lines were selected using puromycin. Proteins were purified by affinity chromatography on Chelating Sepharose and analyzed by SDS-PAGE. The total protein concentration was determined with a BCA Protein Assay
as §6

[11] = molecular target: T8, PR3K99L (Homo sapiens, UniProt P24158, K115L); test: as above; format: biochemical; conditions: Lys99 replaced by Leu in S2 subsite
T8 construct: made in house; host or cells: Drosophila S2 cells
T8 sequence (P24158 28-248 K115L limits assumed): T2 sequence (P24158 28-248) with K88L
Description: as §8, §6

| Substance | Elastase kobs/[I] [1] | Proteinase 3 kobs/[I] [2] [M⁻¹ s⁻¹] | further results |
| --- | --- | --- | --- |
| ^+H2N-Pro-Tyr-Asp-Ala^P(O—C6H4-4-Cl)2 (H-PYD[AlaP]; not fully specified (C-terminus); printed as ^+H2N-Pro-Tyr-Asp-Ala^P(O—C6H4-4-Cl)2; reading uncertain; also: C-terminal Ala as phosphonate analogue (Ala^P)) [Compound 10] | n.s | 4.7 ± 0.5 | effect of P5 group on kobs/I [2]: did not significantly increase |
| Ac-PYDA-pNA | – | – | cleavage by purified HNE [3]: did not cleave; cleavage by purified PR3 [4]: rapidly cleaved |
| Ac-Ahx-Pro-Tyr-Asp-Ala^P(O—C6H4-4-Cl)2 ({Ac-Ahx}-PYD[AlaP]; not fully specified (C-terminus); printed as Ac-Ahx-Pro-Tyr-Asp-Ala^P(O—C6H4-4-Cl)2; reading uncertain; also: C-terminal Ala as phosphonate analogue (Ala^P)) [Compound 9] | n.s | 2159 ± 235 | kobs/I range [2]: ~10^3 M^−1s^−1 |
| Biotin-PEG3000-Pro-Tyr-Asp-Ala^P(O—C6H4-4-Cl)2 [Compound 13] | 46.5 M⁻¹ s⁻¹ | 1163 ± 0.1 | – |
| Ac-Pro-Tyr-Phe-Ala^P(O—C6H4-4-Cl)2 (Ac-PYF[AlaP]; not fully specified (C-terminus); printed as Ac-Pro-Tyr-Phe-Ala^{P}(O—C₆H₄-4-Cl)₂; reading uncertain; also: C-terminal Ala as phosphonate analogue (Ala^P)) [Compound 7] | n.s | 2.1 ± 0.2 | – |
| Biotin-Asp-Tyr-Asp-Ala^P(O—C6H4-4-Cl)2 [Compound 3] | n.s | 18 ± 2.8 | – |
| Ac-Asp-Tyr-Asp-Ala^P(O—C6H4-4-Cl)2 (Ac-DYD[AlaP]; not fully specified (C-terminus); printed as Ac-Asp-Tyr-Asp-Ala^P(O—C6H4-4-Cl)2; reading uncertain; also: C-terminal Ala as phosphonate analogue (Ala^P)) [Compound 1] | n.s | 1.9 ± 0.3 | inhibition of HNE [5]: no significant inhibition; concentration giving almost complete inhibition of PR3 [6]: 20 µM; inhibition of CatG [7]: no significant inhibition; PR3 activity in neutrophil lysate [8]: totally inactivated; inhibition potential after preincubation in neutrophil lysate [9]: No loss of the inhibition potential; inhibition of the Ile217 to Arg217 PR3 mutant compared with PR3K99L [10]: more efficient toward this mutant; sensitivity of PR3K99L to inhibition compared with wt PR3 [11]: far less sensitive to inhibition |
| CH3(CH2)4-Pro-Tyr-Asp-Ala^P(O—C6H4-4-Cl)2 (pentyl-PYD[AlaP]; not fully specified (C-terminus); printed as CH3(CH2)4-Pro-Tyr-Asp-Ala^P(O—C6H4-4-Cl)2; reading uncertain; also: C-terminal Ala as phosphonate analogue (Ala^P)) [Compound 8] | n.s | 4418 ± 329 | kobs/I range [2]: ~10^3 M^−1s^−1 |
| Ac-Ile-Pro-Tyr-Asp-Ala^P(O—C6H4-4-Cl)2 (Ac-IPYD[AlaP]; not fully specified (C-terminus); printed as Ac-Ile-Pro-Tyr-Asp-Ala^{P}(O—C₆H₄-4-Cl)₂; reading uncertain; also: C-terminal Ala as phosphonate analogue (Ala^P)) [Compound 12] | 15.1 ± 1.6 M⁻¹ s⁻¹ | 46 ± 0.1 | effect of P5 group on kobs/I [2]: did not significantly increase |
| Ac-DYDA-pNA | – | – | cleavage by purified HNE [3]: did not cleave; cleavage by purified PR3 [4]: rapidly cleaved |
| Biotin-Pro-Tyr-Asp-Avl^P(O—C6H4-4-Cl)2 [Compound 5] | n.s | 33360 ± 4150 | – |
| Ac-Trp-Pro-Tyr-Asp-Ala^P(O—C6H4-4-Cl)2 (Ac-WPYD[AlaP]; not fully specified (C-terminus); printed as Ac-Trp-Pro-Tyr-Asp-Ala^{P}(O—C₆H₄-4-Cl)₂; reading uncertain; also: C-terminal Ala as phosphonate analogue (Ala^P)) [Compound 11] | n.s | 15 ± 0.1 | effect of P5 group on kobs/I [2]: did not significantly increase |
| Biotin-Val-Tyr-Asp-Ala^P(O—C6H4-4-Cl)2 [Compound 6] | n.s | 17396 ± 835 | – |
